From paper PMC12069617

How the values were obtained:
Test in all cases: SEC-MALS
[1] = target: PR-A (progesterone receptor isoform A);SRC3 (steroid receptor coactivator 3);p300 (human?;human?;human?, UniProt P06401;Q9Y6Q9;Q09472 165-933;1-1424;1-2414, ||)
[2] = target: PR-B (progesterone receptor isoform B);SRC3 (steroid receptor coactivator 3) (human?;human?, UniProt P06401;Q9Y6Q9 1-933;1-1424, |)
[3] = target: PR-B (progesterone receptor isoform B);SRC3 (steroid receptor coactivator 3);p300 (human?;human?;human?, UniProt P06401;Q9Y6Q9;Q09472 1-933;1-1424;1-2414, ||)
[4] = target: PR-A (progesterone receptor isoform A) (UniProt P06401 165-933)
Sequence of PR-A (progesterone receptor isoform A) (P06401 165-933): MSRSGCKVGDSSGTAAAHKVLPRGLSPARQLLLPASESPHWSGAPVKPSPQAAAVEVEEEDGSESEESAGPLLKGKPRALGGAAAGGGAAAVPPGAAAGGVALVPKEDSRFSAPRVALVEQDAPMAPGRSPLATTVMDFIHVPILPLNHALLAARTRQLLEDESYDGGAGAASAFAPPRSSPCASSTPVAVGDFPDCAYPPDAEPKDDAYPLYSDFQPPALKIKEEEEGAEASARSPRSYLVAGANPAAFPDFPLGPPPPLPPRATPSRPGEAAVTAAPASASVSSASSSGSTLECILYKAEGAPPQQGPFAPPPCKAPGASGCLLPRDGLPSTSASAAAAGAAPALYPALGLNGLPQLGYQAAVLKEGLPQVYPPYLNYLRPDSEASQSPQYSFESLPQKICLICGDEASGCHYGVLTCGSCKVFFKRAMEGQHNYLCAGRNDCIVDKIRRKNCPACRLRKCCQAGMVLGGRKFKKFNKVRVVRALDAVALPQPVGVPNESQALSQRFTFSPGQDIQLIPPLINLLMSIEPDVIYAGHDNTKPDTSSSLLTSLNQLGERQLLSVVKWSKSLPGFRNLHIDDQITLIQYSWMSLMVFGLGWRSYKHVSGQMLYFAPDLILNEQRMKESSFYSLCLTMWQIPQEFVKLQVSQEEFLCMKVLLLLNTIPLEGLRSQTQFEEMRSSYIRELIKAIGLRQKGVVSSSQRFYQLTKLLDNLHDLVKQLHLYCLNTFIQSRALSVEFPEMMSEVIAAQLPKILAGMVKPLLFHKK

[5] = target: PR-A (progesterone receptor isoform A);SRC3 (steroid receptor coactivator 3) (human?;human?, UniProt P06401;Q9Y6Q9 165-933;1-1424, |)
Sequence of PR-A (progesterone receptor isoform A);SRC3 (steroid receptor coactivator 3) (P06401 165-933, chain 1 of 2): as the sequence (P06401 165-933) above
Sequence of PR-A (progesterone receptor isoform A);SRC3 (steroid receptor coactivator 3) (Q9Y6Q9 whole entry, chain 2 of 2, canonical isoform): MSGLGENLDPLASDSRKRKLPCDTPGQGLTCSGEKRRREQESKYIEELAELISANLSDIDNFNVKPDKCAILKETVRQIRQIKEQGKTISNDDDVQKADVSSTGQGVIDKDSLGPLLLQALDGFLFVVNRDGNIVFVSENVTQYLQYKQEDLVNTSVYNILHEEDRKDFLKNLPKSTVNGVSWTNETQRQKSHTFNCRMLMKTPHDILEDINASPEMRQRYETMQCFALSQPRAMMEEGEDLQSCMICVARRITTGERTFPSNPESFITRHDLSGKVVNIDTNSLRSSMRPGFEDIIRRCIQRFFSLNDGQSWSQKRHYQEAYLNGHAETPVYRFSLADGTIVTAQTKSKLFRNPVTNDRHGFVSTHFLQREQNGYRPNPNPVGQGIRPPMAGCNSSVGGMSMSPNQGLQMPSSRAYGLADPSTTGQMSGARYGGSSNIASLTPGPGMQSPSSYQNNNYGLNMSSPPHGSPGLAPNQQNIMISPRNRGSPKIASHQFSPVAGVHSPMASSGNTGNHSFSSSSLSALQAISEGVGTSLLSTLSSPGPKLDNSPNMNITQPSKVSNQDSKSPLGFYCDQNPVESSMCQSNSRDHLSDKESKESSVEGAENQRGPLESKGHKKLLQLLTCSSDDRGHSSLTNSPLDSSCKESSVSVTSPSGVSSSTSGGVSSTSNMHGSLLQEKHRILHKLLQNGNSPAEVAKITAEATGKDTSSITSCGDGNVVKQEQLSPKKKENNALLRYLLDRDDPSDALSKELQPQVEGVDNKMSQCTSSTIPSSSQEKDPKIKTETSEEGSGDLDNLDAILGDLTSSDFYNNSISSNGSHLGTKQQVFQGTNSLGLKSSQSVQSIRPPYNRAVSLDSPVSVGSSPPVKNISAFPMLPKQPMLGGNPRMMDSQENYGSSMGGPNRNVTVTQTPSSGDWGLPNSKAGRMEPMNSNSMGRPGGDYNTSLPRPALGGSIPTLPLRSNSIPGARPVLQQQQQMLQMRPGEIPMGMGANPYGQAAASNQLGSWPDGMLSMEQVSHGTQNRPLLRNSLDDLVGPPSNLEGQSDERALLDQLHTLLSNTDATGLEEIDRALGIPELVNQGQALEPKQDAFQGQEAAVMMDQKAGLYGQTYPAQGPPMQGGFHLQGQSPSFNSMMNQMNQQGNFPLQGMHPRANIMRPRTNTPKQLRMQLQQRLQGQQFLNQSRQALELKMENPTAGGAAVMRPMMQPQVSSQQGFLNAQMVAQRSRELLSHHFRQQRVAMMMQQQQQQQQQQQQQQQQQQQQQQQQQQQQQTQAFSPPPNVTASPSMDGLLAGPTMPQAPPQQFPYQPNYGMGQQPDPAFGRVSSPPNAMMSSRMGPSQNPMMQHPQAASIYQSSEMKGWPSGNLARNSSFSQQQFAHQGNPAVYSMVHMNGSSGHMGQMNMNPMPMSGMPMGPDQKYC

[6] = target: PR-B (progesterone receptor isoform B) (UniProt P06401 1-933)

Measured: binding result

Sequence of PR-A (progesterone receptor isoform A);SRC3 (steroid receptor coactivator 3);p300 (P06401 165-933, chain 1 of 3): as the sequence (P06401 165-933) above
Sequence of PR-A (progesterone receptor isoform A);SRC3 (steroid receptor coactivator 3);p300 (Q9Y6Q9 whole entry, chain 2 of 3, canonical isoform): as the sequence (Q9Y6Q9 whole entry, chain 2 of 2, canonical isoform) above
Sequence of PR-A (progesterone receptor isoform A);SRC3 (steroid receptor coactivator 3);p300 (Q09472 whole entry, chain 3 of 3, canonical isoform): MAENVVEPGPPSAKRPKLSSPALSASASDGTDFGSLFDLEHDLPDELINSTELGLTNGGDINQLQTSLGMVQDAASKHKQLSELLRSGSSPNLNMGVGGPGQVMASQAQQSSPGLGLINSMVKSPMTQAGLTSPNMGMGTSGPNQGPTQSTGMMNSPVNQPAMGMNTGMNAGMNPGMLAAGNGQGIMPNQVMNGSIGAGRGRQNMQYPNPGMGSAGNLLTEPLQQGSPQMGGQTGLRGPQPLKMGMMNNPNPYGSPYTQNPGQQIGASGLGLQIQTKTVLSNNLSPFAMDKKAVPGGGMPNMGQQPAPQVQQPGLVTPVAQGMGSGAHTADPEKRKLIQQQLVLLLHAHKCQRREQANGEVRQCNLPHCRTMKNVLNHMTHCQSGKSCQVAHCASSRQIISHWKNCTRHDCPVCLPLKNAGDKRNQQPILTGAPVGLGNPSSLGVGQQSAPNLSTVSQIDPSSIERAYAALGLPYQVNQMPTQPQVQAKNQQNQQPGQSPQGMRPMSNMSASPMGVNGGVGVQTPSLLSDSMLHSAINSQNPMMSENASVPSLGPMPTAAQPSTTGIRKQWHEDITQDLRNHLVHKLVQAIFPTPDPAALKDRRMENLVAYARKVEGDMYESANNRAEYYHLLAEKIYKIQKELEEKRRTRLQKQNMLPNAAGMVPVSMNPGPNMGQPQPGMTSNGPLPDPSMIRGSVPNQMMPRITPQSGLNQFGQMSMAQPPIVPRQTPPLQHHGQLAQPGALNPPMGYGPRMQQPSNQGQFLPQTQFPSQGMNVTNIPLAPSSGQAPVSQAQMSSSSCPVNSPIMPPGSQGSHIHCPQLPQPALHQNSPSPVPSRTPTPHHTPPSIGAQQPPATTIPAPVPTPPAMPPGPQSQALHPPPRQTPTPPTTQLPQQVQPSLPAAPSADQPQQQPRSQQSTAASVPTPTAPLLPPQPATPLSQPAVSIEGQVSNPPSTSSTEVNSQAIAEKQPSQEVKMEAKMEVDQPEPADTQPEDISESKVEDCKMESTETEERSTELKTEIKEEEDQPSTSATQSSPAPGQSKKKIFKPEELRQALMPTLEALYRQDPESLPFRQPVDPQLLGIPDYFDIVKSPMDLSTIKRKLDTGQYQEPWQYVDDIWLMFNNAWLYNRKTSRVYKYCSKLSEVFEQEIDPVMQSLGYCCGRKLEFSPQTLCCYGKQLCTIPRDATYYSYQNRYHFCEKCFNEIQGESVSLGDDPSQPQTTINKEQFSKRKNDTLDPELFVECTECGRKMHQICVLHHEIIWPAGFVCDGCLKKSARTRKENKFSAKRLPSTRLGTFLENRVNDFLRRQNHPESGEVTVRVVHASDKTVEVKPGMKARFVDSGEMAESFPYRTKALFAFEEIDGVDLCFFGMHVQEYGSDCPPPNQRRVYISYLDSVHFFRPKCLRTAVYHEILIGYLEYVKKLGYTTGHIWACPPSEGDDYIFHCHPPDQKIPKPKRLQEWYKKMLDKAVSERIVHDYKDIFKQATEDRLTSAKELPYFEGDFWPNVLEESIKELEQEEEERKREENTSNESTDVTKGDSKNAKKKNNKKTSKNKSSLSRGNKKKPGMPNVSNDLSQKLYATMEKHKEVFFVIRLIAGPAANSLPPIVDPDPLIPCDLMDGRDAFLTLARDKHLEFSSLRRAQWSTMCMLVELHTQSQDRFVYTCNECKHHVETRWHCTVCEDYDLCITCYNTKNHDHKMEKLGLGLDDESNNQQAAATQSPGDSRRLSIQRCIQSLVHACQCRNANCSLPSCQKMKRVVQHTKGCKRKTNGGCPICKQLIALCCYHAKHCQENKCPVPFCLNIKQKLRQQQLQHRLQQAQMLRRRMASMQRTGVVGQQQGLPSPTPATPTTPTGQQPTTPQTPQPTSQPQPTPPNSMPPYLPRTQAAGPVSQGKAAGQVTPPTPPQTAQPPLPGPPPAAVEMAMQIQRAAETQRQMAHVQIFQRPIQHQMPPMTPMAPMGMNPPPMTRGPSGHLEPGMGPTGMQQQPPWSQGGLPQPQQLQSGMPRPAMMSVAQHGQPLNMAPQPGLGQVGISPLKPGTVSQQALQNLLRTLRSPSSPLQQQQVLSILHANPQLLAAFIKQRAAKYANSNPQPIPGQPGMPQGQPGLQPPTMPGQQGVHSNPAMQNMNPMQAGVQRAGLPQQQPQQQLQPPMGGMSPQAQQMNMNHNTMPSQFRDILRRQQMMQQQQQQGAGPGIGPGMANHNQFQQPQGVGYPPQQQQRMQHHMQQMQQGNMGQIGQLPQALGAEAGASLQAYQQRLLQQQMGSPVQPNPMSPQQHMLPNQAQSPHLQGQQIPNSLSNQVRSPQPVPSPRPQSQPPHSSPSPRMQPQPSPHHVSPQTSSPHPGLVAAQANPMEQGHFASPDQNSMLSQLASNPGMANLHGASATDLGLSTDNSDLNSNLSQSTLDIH

B1: 32-mer PRE (progesterone response element) (dsDNA)
DNA 1: CATCTTTGAGAACAAACTGTTCTTAAAACGAG
DNA 2: CTCGTTTTAAGAACAGTTTGTTCTCAAAGATG
binds: all assays above
